Literature values as cited in patent publication US11173109B2, “Compositions in the form of an injectable aqueous solution comprising amylin, an amylin receptor agonist or an amylin analog and a co-polyamino acid” (ADOCIA, priority 2017, dated 2021).
No end group written: not given here.

Conditions: neutral pH

In the case of “amylin: peptide of 37 amino acids which is co-stored and co-secreted with insulin (KCNTATCATQRLANFLVHSSNNFGAILSSTNVGSNTY; not fully specified (C-terminus, bridges); cysteine pairing not given here; UniProt P10997 34-70, looked up)”, the “time for which amylin is stable” value is given as “less than one”.
